The test system of data set [1] is ErbB3 phosphorylation in ZR75-30 cells. In words: HRG-induced ErbB3 phosphorylation ELISA in ZR75-30. The class given is cell-based, human. Particulars: ZR75-30, dose titration 24 hours, 5 nM HRG 1β EGF domain 10 minutes. On the procedure:
(§1) Except as noted, ELISA reagents for total and phospho-ErbB3 ELISAs are purchased from R&D Systems as DUOSET kits. 96-well NUNC MAXISORB plates are coated with 50 μl of an antibody and incubated overnight at room temperature. Next morning, plates are washed 3 times with 1000 μl/well in a BIOTEK plate washer with Dulbecco's phosphate buffered saline without calcium or magnesium (PBS) with added Tween detergent (PBST) (0.05% Tween-20). […] The plates are washed 3 times with 1000 μl/well in the BIOTEK plate washer with PBST. Cells are grown at 37° C. and 5% carbon dioxide, washed with cold PBS, then harvested with mammalian protein extract (MPER) lysis buffer (Pierce, 78505) to which 150 mM NaCl, 5 mM sodium pyrophosphate, 10 uM bpV (phen), 50uM phenylarsine, 1 mM sodium orthovanadate, and protease inhibitor cocktail (Sigma, P2714) is added. 50 μL of cell lysates and standards diluted in 50% Lysis buffer and 1% BSA are used in duplicates for further processing. Samples are incubated for 2hrs at 4° C. on a plate shaker and washed as before. About 50 μl of a detection antibody diluted in 2% BSA, PBST is added and incubated for about 1-2 hrs at room temperature. […] About 50 μL of SUPERSIGNAL ELISA Pico (Thermo Scientific) substrate is added and the plate is read using a FUSION plate reader. […]
For orientation: ELISA stands for enzyme-linked immunosorbent assay.

In data set [2] the target is T1, recombinant extracellular domain of ErbB3 (Homo sapiens, UniProt P21860).
T1 construct: Plates are coated with the recombinant extracellular domain of either ErbB2 or ErbB3
Briefly: specificity competition ELISA on ErbB3-coated plates. Particulars: half-maximal binding concentration of B2B3-1. An excerpt:
(§2) Plates are coated with the recombinant extracellular domain of either ErbB2 or ErbB3.

The nature of data set [3]: single dose pharmacokinetics in nu/nu mice. It is filed as in vivo. Particulars: for AUC / Clearance / T½β: Mouse (single dose).
Method: Blood is collected pre-dose and at 0.5, 4, 8, 24, 48, 72, and 120 hours post dose. Three mice are used for each time point. […] The HSA ELISA utilizes a polyclonal-anti HSA capture antibody and a HRP-conjugated polyclonal anti-HSA detection antibody.
Data set [4] has as its system ErbB3 phosphorylation in BT-474-M3 cells. In words: HRG-induced ErbB3 phosphorylation ELISA in BT-474-M3. Particulars: BT-474-M3, dose titration 24 hours, 5 nM HRG 1β EGF domain 10 minutes. The class given is cell-based, human. On the procedure:
as §1

A further data set has as its system BT-474-M3 xenograft. Briefly: combination with trastuzumab in BT-474-M3 xenograft model. Particulars: single agent. It is filed as in vivo, athymic nude mice (nu/nu).
For data set [5], the target named is T2, recombinant extracellular domain of ErbB2 (Homo sapiens, UniProt P04626).
T2 construct: Plates are coated with the recombinant extracellular domain of either ErbB2 or ErbB3
Briefly: specificity competition ELISA on ErbB2-coated plates. Particulars: half-maximal binding concentration of B2B3-1.
Text: as §2

Data set [6] relates to pAKT in BT-474-M3 xenografts that have reduced PTEN activity. Briefly: pAKT Western blot of PTEN deficient BT-474-M3 xenograft tumors. The class given is in vivo. Particulars: 30 mg/kg B2B3-1 every 3 days or 10 mg/kg trastuzumab weekly. (Immunoblotting shows a protein as a band on a membrane.)
Text: Equal quantities of protein are loaded in each lane and total protein levels are controlled by probing for PCNA.
The test system of the next data set is BT-474 cells. Briefly: cell impedance proliferation assay (RT-CES). It is filed as cell-based. Particulars: calculated 68 hours after treatment, read-out: IC50 of inhibition of cell impedance.
The next data set concerns ADRr-E2 xenografts. Briefly: ADRr-E2 (ErbB2 over-expressing) xenograft model. Particulars: ADRr-E2, 30 mg/kg every 3 days. It is filed as in vivo, nude mice. The source says:
ErbB2 is over-expressed in ADRr breast cancer cells using a retroviral expression system. Transfected cells expressing high levels of ErbB2 (ADRr-E2) are selected using FACS and subsequently injected subcutaneously into nude mice to establish xenograft tumors.

Several values for one entry are separate records, joined by “and”; a condition that tells them apart may be missing. Equal values may be shown once. Entries after “also recorded” stand apart in the source; their conditions may differ.

As usually defined, the IC50 is the midpoint of a concentration-inhibition curve.

“B2B3-1: bispecific scFv antibody fusion: anti-ErbB3 scFv H3 and anti-ErbB2 scFv B1D2 joined by a modified human serum albumin (HSA) linker”: the “inhibition of HRG induced ErbB3 phosphorylation” value in data set [1] and in data set [4] was “inhibits” each time. The “blocking of binding to ErbB3-coated plates by soluble extracellular domains of EGFR, ErbB2, ErbB3 or ErbB4” value in [2] is “only soluble ErbB3 extracellular domain blocked; also recorded: binds specifically”. Besides, the AUC in data set [3] (5 mg/kg IV) was determined as 1.58E+03 hr-μg/ml; in data set [3] (15 mg/kg IV) it was 6.10E+03 hr-μg/ml; in [3] (30 mg/kg IV), 1.18E+04 hr-μg/ml; in data set [3] (45 mg/kg IV), 1.84E+04 hr-μg/ml. Besides, the Clearance is 3.19 mL/h/kg in data set [3] (5 mg/kg IV), 2.47 mL/h/kg in data set [3] (15 mg/kg IV), 2.54 mL/h/kg in data set [3] (30 mg/kg IV) and 2.46 mL/h/kg in data set [3] (45 mg/kg IV). Further, the T½β is 17 h and 16.9 h in [3] (5 mg/kg IV, 5 mg/kg); 16 h and 16.2 h in data set [3] (15 mg/kg IV, 15 mg/kg); 23 h and 22.6 h in data set [3] (30 mg/kg IV, 30 mg/kg); 18 h and 17.5 h in [3] (45 mg/kg IV, 45 mg/kg). Further, the dose-exposure relationship result in [3] (nu/nu mice, 5, 15, 30 and 45 mg/kg bolus doses) is listed as “linear increase in overall exposure”. The “mice with completely regressed tumors” value in the data set with BT-474-M3 xenograft (B2B3-1 3 mg/kg q3d) and in the data set on BT-474-M3 xenograft (B2B3-1 10 mg/kg q3d) was 0 out of 10 each time. In data set [5], the “blocking of binding to ErbB2-coated plates by soluble extracellular domains of EGFR, ErbB2, ErbB3 or ErbB4” value was “only soluble ErbB2 extracellular domain blocked; also recorded: binds specifically”. Besides, the “pAKT in tumors (densitometry of Western blot)” value in [6] is “significantly less pAKT; also recorded: able to inhibit phosphorylation”. The IC50 in the data set with BT-474 cells was 33 nM. Besides, the xenograft response entry in the data set on ADRr-E2 xenografts is “responded; also recorded: responder”.

The values above are taken from patent US20110059076A1, “HUMAN SERUM ALBUMIN LINKERS AND CONJUGATES THEREOF” (priority 2008, published 2011).
